This passage reports stoichiometry N results from article PMC9548408.

Experiment [1] concerns the target human lysosomal α-L-fucosidase (FucA1) (human) (UniProt P04066). Nature of the experiment: cryo-EM structure; single-particle cryo-EM, 200 kV Glacios, D2 symmetry imposed; unliganded FucA1 at 2 mg/mL, and FucA1 at 1.5 mg/mL with 1 mM deoxyfuconojirimycin in 60 mM phosphate citrate pH 4.5.
The target is the same in experiment [2]. Put plainly: SEC-MALS; SEC-MALLS, Superdex S200 10/300, 20 mM HEPES pH 7.4, 200 mM NaCl, room temperature (20 ± 2°C), 100 μL injected at 0.8 mg/mL.

In the case of “human lysosomal α-L-fucosidase (FucA1) (from UniProt P04066 32-466) (enzyme)”, the stoichiometry N in experiment [1] and in experiment [2] was 4 in each case.
